This note sets out measurements from the Immune Epitope Database (IEDB).

The target in the first test is HLA-A*68:01. Kind of test: IEDB peptide-MHC binding, purified MHC/competitive/radioactivity; filed as Kd, often an IC50 or EC50 that approximates it; ≥ and ≤ were set here for values at or beyond the usual limits of such assays. As to conditions: source organism: Mammarenavirus guanaritoense.
Consider FFTTSLFLH, for which the Kd (commonly the equilibrium constant for the complex coming apart) is at least 24800 nM.

Still in this test, the particulars now being: source organism: Mammarenavirus juninense.
Consider RNPYENLLYK, for which the Kd was 12600 nM.

The test is the same for the next values; noted with them: source organism: SARS coronavirus Tor2.
For MQNCLLRLK, the Kd amounted to 1370 nM.
SLTSLLKTHR: the Kd stood at 698 nM.
Still for that read-out and setting: the result for DQDALFAYTK reads 1270 nM; that for RQLFKPLTK, at least 77700 nM.
The same measure, in the same setting: with LAMDEFIQR the figure was 612 nM; with VLTSEEVVLK, 2100 nM.
Take VTCAAYYFMK: the Kd came to 49.2 nM.
AFHTPAFDK: the Kd is 8590 nM.

Still in this test, the particulars now being: source organism: Vaccinia virus WR.
Turning to SLTILDDNLY, the Kd was determined as 5990 nM.
Take KSRRLNLFSK: the Kd is at least 70200 nM.
Take SSMTIREFPR: the Kd came out at 0.479 nM.
For SSLVKNVNK, the Kd came to 4400 nM.
For PLIDIIRKR, the Kd is 974 nM.
In the case of FLKDDTLSK, the Kd amounted to 638 nM.
As to ESIEDKFDY, the Kd was determined as 1720 nM.
TVNICIFYDR: the Kd worked out at 27.7 nM.
On to KSMFWDGMDY, for which the Kd turned out to be 511 nM.
Regarding SVKYYGRSTK, the Kd is 822 nM.
For the sequence RVRRYQIAQY, the Kd worked out at 6340 nM.
LALTDVEKR: the Kd came to 162 nM.
Take VTRKCPQKK: the Kd was determined as 9880 nM.
Consider AFLLRHYYNK, for which the Kd came out at 5340 nM.
For MMKLGISPSK, the Kd was found to be 81.1 nM.
NLTDTNFKK: the Kd came out at 27 nM.
In the case of IILAALFMYY, the Kd is 1480 nM.
Regarding IITSTKTIEY, the dissociation constant Kd came out at 5720 nM.
As to KVKTELVMDK, the Kd is at least 48600 nM.
On to FLEFSNRVY, for which the Kd was found to be 10100 nM.
For the sequence VVVQIDPEY, the Kd stood at 110 nM.
With SFIVPEFAK, the Kd came out at 1120 nM.
On the same count and under the same terms, with ISDYSAEVER the figure was 229 nM.
Take KVVDTFISY: the Kd stood at 3380 nM.

For the next test, the target named is HLA-A*02:03. Described as above. As to conditions: source organism: Dengue virus 1 Brazil/97-11/1997.
For the sequence SMTCIAVGMV, the Kd was 21.5 nM.
Regarding TLIAMDLGEL, the Kd amounted to 12.6 nM.

The test is the same for the next values; noted with them: source organism: Dengue virus 2 16681-PDK53.
Consider ILAVVSVSPL, for which the Kd was 39.5 nM.

Staying with this test, now noted: source organism: Dengue virus 2 Jamaica/1409/1983.
For the sequence ALGMMVLKIV, the Kd was found to be 55.9 nM.
Same read-out and setting: with KVSCTILAAV the figure was 54.4 nM.

The same test, now with this note: source organism: Dengue virus 3 Martinique/1243/1999.
With GLMILLTGGA, the Kd was found to be 23.1 nM.

Staying with this test, now noted: source organism: Vaccinia virus WR.
For CTEETKRNIA, the Kd was at least 50100 nM.
With RTMPNESRV, the Kd came to 100 nM.
For the sequence GIKNLKSLL, the Kd turned out to be 2620 nM.
Still for that read-out and setting: the result for ALLSCIRNA reads 6.22 nM; that for PVLEKKVCAI, 1190 nM; that for IADIRDKYM, 230 nM.
As to NMLDDFSAGA, the Kd came out at 161 nM.
Still for that read-out and setting: with PLSINVSGV the figure was 45.3 nM.
The same measure, in the same setting: with GTKGKLYIAL the figure was 7840 nM.

A further test has as its target HLA-A*02:02. The test is described as above. As to conditions: source organism: Vaccinia virus WR.
Regarding CTEETKRNIA, the Kd is at least 70000 nM.
In the case of RTMPNESRV, the Kd came out at 140 nM.
Consider GIKNLKSLL, for which the Kd came out at 2140 nM.
On to ALLSCIRNA, for which the Kd was 120 nM.
For the sequence PVLEKKVCAI, the Kd was 541 nM.
Regarding IADIRDKYM, the Kd was 63.5 nM.
With NMLDDFSAGA, the Kd was 308 nM.
On the same count and under the same terms, the result for PLSINVSGV reads 1120 nM; that for GTKGKLYIAL, 9070 nM.

Another test deals with HLA-A*11:01. Described as above. As to conditions: source organism: Lymphocytic choriomeningitis virus (strain Armstrong).
As for SCQGSDDIRK, the Kd was determined as 18300 nM.

The same test, now with this note: source organism: Mammarenavirus guanaritoense.
As for FFTTSLFLH, the Kd was at least 77900 nM.

The same test, now with this note: source organism: Mammarenavirus juninense.
For the sequence RNPYENLLYK, the Kd was found to be 628 nM.

Staying with this test, now noted: source organism: SARS coronavirus Tor2.
MQNCLLRLK: the Kd came to 17.7 nM.
For SLTSLLKTHR, the Kd worked out at 1230 nM.
Consider DQDALFAYTK, for which the Kd stood at 2600 nM.
As to RQLFKPLTK, the Kd came out at 662 nM.
The same measure, in the same setting: the result for LAMDEFIQR reads 2390 nM.
On the same count and under the same terms, the result for VLTSEEVVLK reads 966 nM.
Take VTCAAYYFMK: the Kd was 6.93 nM.
As for AFHTPAFDK, the Kd worked out at 957 nM.

The test is the same for the next values; noted with them: source organism: Vaccinia virus WR.
Take SLTILDDNLY: the Kd worked out at 3070 nM.
As to KSRRLNLFSK, the Kd was determined as 1090 nM.
Regarding SSMTIREFPR, the Kd stood at 5.47 nM.
Take SSLVKNVNK: the Kd came to 27.1 nM.
Regarding PLIDIIRKR, the Kd is at least 48100 nM.
Consider FLKDDTLSK, for which the Kd was at least 10000 nM.
Regarding ESIEDKFDY, the dissociation constant (Kd) is 11300 nM.
For the sequence TVNICIFYDR, the Kd was determined as 151 nM.
KSMFWDGMDY: the Kd is 1.75 nM.
For the sequence SVKYYGRSTK, the Kd came out at 571 nM.
The same measure, in the same setting: the result for RVRRYQIAQY reads at least 25500 nM; that for LALTDVEKR, 12300 nM; that for VTRKCPQKK, 61.5 nM.
AFLLRHYYNK: the Kd was found to be 225 nM.
On the same count and under the same terms, with MMKLGISPSK the figure was 27.1 nM; with NLTDTNFKK, 658 nM; with IILAALFMYY, 740 nM.
With IITSTKTIEY, the Kd came to 917 nM.
Still for that read-out and setting: the result for KVKTELVMDK reads 409 nM.
On to FLEFSNRVY, for which the Kd is 3210 nM.
The same measure, in the same setting: the result for VVVQIDPEY reads 2340 nM; that for SFIVPEFAK, 103 nM.
With ISDYSAEVER, the Kd came out at 3840 nM.
On to KVVDTFISY, for which the Kd was 4.98 nM.

For the next test, the target named is HLA-A*02:06. Described as above. As to conditions: source organism: Dengue virus 1 Brazil/97-11/1997.
Turning to FQPHQLWTT, the Kd amounted to 6.01 nM.

The test is the same for the next values; noted with them: source organism: Dengue virus 2 Jamaica/1409/1983.
Consider KVSCTILAAV, for which the Kd worked out at 12.7 nM.
Still for that read-out and setting: with GQIDNFSLGV the figure was 5.63 nM.

Still in this test, the particulars now being: source organism: Homo sapiens.
Consider KLKSMEAEMI, for which the Kd was found to be 7830 nM.

Still in this test, the particulars now being: source organism: Vaccinia virus WR.
For the sequence CTEETKRNIA, the Kd is at least 69800 nM.
In the case of RTMPNESRV, the Kd worked out at 155 nM.
On the same count and under the same terms, with GIKNLKSLL the figure was at least 61200 nM.
In the case of ALLSCIRNA, the Kd came out at 77.4 nM.
Regarding PVLEKKVCAI, the Kd came to 1050 nM.
Still for that read-out and setting: the result for IADIRDKYM reads at least 58100 nM; that for NMLDDFSAGA, 242 nM.
PLSINVSGV: the Kd is 17900 nM.
In the case of GTKGKLYIAL, the dissociation constant (Kd) was at least 37200 nM.
